Data on 1 molecule can be found in US20140093892A1 (KOREA RESEARCH INSTITUTE OF BIOSCIENCE AND BIOTECHNOLOGY, published 2014).

For this test, the target named is T1, CK8 recombinant protein (human cytokeratin 8, tag sequence included) (human, UniProt P05787 1-483).
T1 construct: Expressed in E. coli BL21(DE3) as inclusion bodies, dissolved in 8 M urea/PBS; also called KRT8 Keratin, type II cytoskeletal 8
T1 sequence (looked up): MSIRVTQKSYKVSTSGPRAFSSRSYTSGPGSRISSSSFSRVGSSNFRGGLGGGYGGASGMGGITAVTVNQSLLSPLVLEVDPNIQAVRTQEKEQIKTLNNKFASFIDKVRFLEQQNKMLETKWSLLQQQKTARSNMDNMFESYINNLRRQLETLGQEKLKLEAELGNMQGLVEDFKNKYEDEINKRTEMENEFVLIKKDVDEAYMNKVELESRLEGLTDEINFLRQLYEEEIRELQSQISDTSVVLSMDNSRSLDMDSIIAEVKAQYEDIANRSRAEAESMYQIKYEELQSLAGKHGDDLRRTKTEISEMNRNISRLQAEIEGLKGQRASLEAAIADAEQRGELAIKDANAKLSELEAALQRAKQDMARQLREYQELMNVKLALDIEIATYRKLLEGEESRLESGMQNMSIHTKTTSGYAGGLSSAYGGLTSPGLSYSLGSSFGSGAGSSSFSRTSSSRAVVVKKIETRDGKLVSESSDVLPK
Nature of the test: overlay of recombinant protein solution (50 µg/ml) on blotted partner protein, read out by TAB-K94 reactivity.

B1: CK18 recombinant protein (human cytokeratin 18, tag sequence included) (other, UniProt P05783 1-430, looked up, not shown: small tags and cut ends)
chain: MSFTTRSTFSTNYRSLGSVQAPSYGARPVSSAASVYAGAGGSGSRISVSRSTSFRGGMGSGGLATGIAGGLAGMGGIQNEKETMQSLNDRLASYLDRVRSLETENRRLESKIREHLEKKGPQVRDWSHYFKIIEDLRAQIFANTVDNARIVLQIDNARLAADDFRVKYETELAMRQSVENDIHGLRKVIDDTNITRLQLETEIEALKEELLFMKKNHEEEVKGLQAQIASSGLTVEVDAPKSQDLAKIMADIRAQYDELARKNREELDKYWSQQIEESTTVVTTQSAEVGAAETTLTELRRTVQSLEIDLDSMRNLKASLENSLREVEARYALQMEQLNGILLHLESELAQTRAEGQRQAQEYEALLNIKVKLEAEIATYRRLLEDGEDFNLGDALDSSNSMQTIQKTTTRRIVDGKVVSETNDTKVLRH
notes: Expressed in E. coli BL21(DE3) as inclusion bodies, dissolved in 8 M urea/PBS; also called KRT18 Keratin, type I cytoskeletal 18
Consider B1, for which the binding result is “binds”.
